We go through 1 molecule from patent US20160083481A1 (INSERM INSTITUT NATIONAL DE LA SANT ET DE LA RECHERCHE M …, published 2016).

For assay [1], the target named is T1, Purified glycophorin A (human, from red cell membranes) (human, UniProt P02724 20-150).
T1 construct: mature; also called GPA; Human Glycophorin A
T1 sequence (looked up): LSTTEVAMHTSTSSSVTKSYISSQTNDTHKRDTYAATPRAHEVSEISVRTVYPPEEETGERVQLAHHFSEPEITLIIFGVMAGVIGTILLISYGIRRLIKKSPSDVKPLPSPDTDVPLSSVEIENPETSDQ
The experiment in a line: SPR, Biacore X100, purified GPA amine-coupled on a CM5 chip (400 RU), IH4 as analyte, 1:1 Langmuir fit. Background: SPR reads the build-up and loss of mass on a sensor chip optically.
Procedure: SPR recordings obtained in a Biacore X100 apparatus.
SPR analysis of VHH interactions used a Biacore X100 apparatus (GE Healthcare). Purified GPA was immobilized on a CM5 chip in the Fc2 channel to a level of 400 Resonance units using amine coupling chemistry as recommended by the manufacturer. Reference channel Fc1 was simply activated and deactivated through ethanolamine. 6 different concentrations of analyte were injected onto the chip for 180 seconds, and dissociation let to proceed for 600 seconds. Data were analyzed using BIA Evaluation software associated to the apparatus.
Data can be easily fitted using 1:1 Langmuir fit.

Assay [2] has as its target T2, Glycophorin B in the crude glycophorins mixture (human, UniProt P06028 20-91).
T2 construct: mature; also called GPB
Briefly: western blot of the crude glycophorins mixture, PVDF, with and without NaOH beta-elimination.

B1: IH4 (VHH)
VHH: QVQLQESGGGSVQAGGSLRLSCVASGYTDSTYCVGWFRQAPGKEREGVARINTISGRPWYADSVKGRFTISQDNSKNTVFLQMNSLKPEDTAIYYCTLTTANSRGFCSGGYNYKGQGQVTVS
notes: also called VHH IH4; autonomous IH4; not shown: A polyhistidine tail is also present: C-terminal after the HA tag (pHEN6cPm)
As a reminder, the Kd is a measure of binding affinity in units of concentration. A higher Kd goes with weaker binding. Broadly, the koff is a measure of how fast the partners let go of each other. A low value points to slow dissociation. The kon is the second-order rate constant of association. High values mean fast association, low ones slow association. As for B1, in assay [1], binding was put at a Kd of 33.7 nM, the off-rate (koff) is 0.019 s⁻¹ and the kon came to 573000 M⁻¹ s⁻¹. Further, the binding result in assay [2] is given as “no binding”.
